Measured values: the supplement of paper PMC12458215
± gives the uncertainty stated by the source.

Tested on: HEK293T
Assay: plasma membrane surface immunostaining intensity (anti-HA, deep receptor scanning) (arbitrary fluorescence units); higher = higher plasma membrane expression

Q: How did the “plasma membrane surface immunostaining intensity” value (GPCR class: A) turn out when “MDQFPESVTENFEYDDLAEACYIGDIVVFGTVFLSIFYSVIFAIGLVGNLLVVFALTNSKKPKSVTDIYLLNLALSDLLFVATLPFWTHYLINEKGLHNAMCKFTTAFFFIGFFGSIFFITVISIDRYLAIVLAANSMNNRTVQHGVTISLGVWAAAILVAAPQFMFTKQKENECLGDYPEVLQEIWPVLRNVETNFLGFLLPLLIMSYCYFRIIQTLFSCKNHKKAKAIKLILLVVIVFFLFWTPYNVMIFLETLKLYDFFPSCDMRKDLRLALSVTETVAFSHCCLNPLIYAFAGEKFRRYLYHLYGKCLAVLCGRSVHVDFSSSESQRSRHGSVLSSNFTYHTSDGDALLLL [CX3CR1]” was run?
A: Its value is 196 ± 34.

Q: How did the “plasma membrane surface immunostaining intensity” value (GPCR class: A) turn out when “MDTGPDQSYFSGNHWFVFSVYLLTFLVGLPLNLLALVVFVGKLRCRPVAVDVLLLNLTASDLLLLLFLPFRMVEAANGMHWPLPFILCPLSGFIFFTTIYLTALFLAAVSIERFLSVAHPLWYKTRPRLGQAGLVSVACWLLASAHCSVVYVIEFSGDISHSQGTNGTCYLEFRKDQLAILLPVRLEMAVVLFVVPLIITSYCYSRLVWILGRGGSHRRQRRVAGLVAATLLNFLVCFGPYNVSHVVGYICGESPVWRIYVTLLSTLNSCVDPFVYYFSSSGFQADFHELLRRLCGLWGQWQQESSMELKEQKGGEEQRADRPAERKTSEHSQGCGTGGQVACAEN [GPR42]” was run?
A: The value was 798 ± 40.

Q: “MGTEATEQVSWGHYSGDEEDAYSAEPLPELCYKADVQAFSRAFQPSVSLTVAALGLAGNGLVLATHLAARRAARSPTSAHLLQLALADLLLALTLPFAAAGALQGWSLGSATCRTISGLYSASFHAGFLFLACISADRYVAIARALPAGPRPSTPGRAHLVSVIVWLLSLLLALPALLFSQDGQREGQRRCRLIFPEGLTQTVKGASAVAQVALGFALPLGVMVACYALLGRTLLAARGPERRRALRVVVALVAAFVVLQLPYSLALLLDTADLLAARERSCPASKRKDVALLVTSGLALARCGLNPVLYAFLGLRFRQDLRRLLRGGSCPSGPQPRRGCPRRPRLSSCSAPTETHSLSWDN [CCR10]” was tested. Which “plasma membrane surface immunostaining intensity” value (GPCR class: A) did it give?
A: Its value is 424 ± 20.

Q: How did the “plasma membrane surface immunostaining intensity” value (GPCR class: A (Olfactory)) turn out when “MELWNFTLGSGFILVGILNDSGSPELLCATITILYLLALISNGLLLLAITMEARLHMPMYLLLGQLSLMDLLFTSVVTPKALADFLRRENTISFGGCALQMFLALTMGGAEDLLLAFMAYDRYVAICHPLTYMTLMSSRACWLMVATSWILASLSALIYTVYTMHYPFCRAQEIRHLLCEIPHLLKVACADTSRYELMVYVMGVTFLIPSLAAILASYTQILLTVLHMPSNEGRKKALVTCSSHLTVVGMFYGAATFMYVLPSSFHSTRQDNIISVFYTIVTPALNPLIYSLRNKEVMRALRRVLGKYMLPAHSTL [OR2AG1]” was run?
A: The value was 135 ± 23.

Q: “MDSTIPVLGTELTPINGREETPCYKQTLSFTGLTCIVSLVALTGNAVVLWLLGCRMRRNAVSIYILNLVAADFLFLSGHIICSPLRLINIRHPISKILSPVMTFPYFIGLSMLSAISTERCLSILWPIWYHCRRPRYLSSVMCVLLWALSLLRSILEWMFCDFLFSGANSVWCETSDFITIAWLVFLCVVLCGSSLVLLVRILCGSRKMPLTRLYVTILLTVLVFLLCGLPFGIQWALFSRIHLDWKVLFCHVHLVSIFLSALNSSANPIIYFFVGSFRQRQNRQNLKLVLQRALQDTPEVDEGGGWLPQETLELSGSRLEQ [MRGPRX3]” was tested. Which “plasma membrane surface immunostaining intensity” value (GPCR class: A) did it give?
A: Its value is 135 ± 14.

Q: With “MVFLSGNASDSSNCTQPPAPVNISKAILLGVILGGLILFGVLGNILVILSVACHRHLHSVTHYYIVNLAVADLLLTSTVLPFSAIFEVLGYWAFGRVFCNIWAAVDVLCCTASIMGLCIISIDRYIGVSYPLRYPTIVTQRRGLMALLCVWALSLVISIGPLFGWRQPAPEDETICQINEEPGYVLFSALGSFYLPLAIILVMYCRVYVVAKRESRGLKSGLKTDKSDSEQVTLRIHRKNAPAGGSGMASAKTKTHFSVRLLKFSREKKAAKTLGIVVGCFVLCWLPFFLVMPIGSFFPDFKPSETVFKIVFWLGYLNSCINPIIYPCSSQEFKKAFQNVLRIQCLCRKQSSKHALGYTLHPPSQAVEGQHKDMVRIPVGSRETFYRISKTDGVCEWKFFSSMPRGSARITVSKDQSSCTTARVRSKSFLQVCCCVGPSTPSLDKNHQVPTIKVHTISLSENGEEV [ADRA1A]” as the sequence, how does the “plasma membrane surface immunostaining intensity” value (GPCR class: A) read?
A: The value was 2110 ± 600.

Q: How did the “plasma membrane surface immunostaining intensity” value (GPCR class: A (Olfactory)) turn out when “MVWENQTFNSIFILLGIFNHSPTHTFLFSLVLGIFSLALMENISMVLLIYIEKQLHTPMYFLLSQLSLMDLMLICTTLPKMIFSYLSGKKSISLAGCGTQIFFYVSLLGAECFLLAVMAYDRYVAICHPLQYTILMNPKLCVFMTVASWTLGSLDGIIVLAAVLSFSYCSSLEIHHFFCDVAALLPLSCTETSAFERLLVICCVVMLIFPVSVIILSYSHVLRAVIHMGSGESRRKAFTTCSSHLSVVGLYYGAAMFMYMRPASKHTPDQDKMVSAFYTILTPMLNPLIYSLRNKEVFRALQKVLKKRKLI [OR2M4]” was run?
A: The value was 172 ± 36.

Q: “MAEHDYHEDYGFSSFNDSSQEEHQDFLQFSKVFLPCMYLVVFVCGLVGNSLVLVISIFYHKLQSLTDVFLVNLPLADLVFVCTLPFWAYAGIHEWVFGQVMCKSLLGIYTINFYTSMLILTCITVDRFIVVVKATKAYNQQAKRMTWGKVTSLLIWVISLLVSLPQIIYGNVFNLDKLICGYHDEAISTVVLATQMTLGFFLPLLTMIVCYSVIIKTLLHAGGFQKHRSLKIIFLVMAVFLLTQMPFNLMKFIRSTHWEYYAMTSFHYTIMVTEAIAYLRACLNPVLYAFVSLKFRKNFWKLVKDIGCLPYLGVSHQWKSSEDNSKTFSASHNVEATSMFQL [CXCR6]” was tested. Which “plasma membrane surface immunostaining intensity” value (GPCR class: A) did it give?
A: The value was 967 ± 65.

Q: With “MTNSSFFCPVYKDLEPFTYFFYLVFLVGIIGSCFATWAFIQKNTNHRCVSIYLINLLTADFLLTLALPVKIVVDLGVAPWKLKIFHCQVTACLIYINMYLSIIFLAFVSIDRCLQLTHSCKIYRIQEPGFAKMISTVVWLMVLLIMVPNMMIPIKDIKEKSNVGCMEFKKEFGRNWHLLTNFICVAIFLNFSAIILISNCLVIRQLYRNKDNENYPNVKKALINILLVTTGYIICFVPYHIVRIPYTLSQTEVITDCSTRISLFKAKEATLLLAVSNLCFDPILYYHLSKAFRSKVTETFASPKETKAQKEKLRCENNA [GPR171]” as the sequence, how does the “plasma membrane surface immunostaining intensity” value (GPCR class: A) read?
A: Its value is 455 ± 49.

Q: With “MGGRVFLVFLAFCVWLTLPGAETQDSRGCARWCPQDSSCVNATACRCNPGFSSFSEIITTPMETCDDINECATLSKVSCGKFSDCWNTEGSYDCVCSPGYEPVSGAKTFKNESENTCQDVDECQQNPRLCKSYGTCVNTLGSYTCQCLPGFKLKPEDPKLCTDVNECTSGQNPCHSSTHCLNNVGSYQCRCRPGWQPIPGSPNGPNNTVCEDVDECSSGQHQCDSSTVCFNTVGSYSCRCRPGWKPRHGIPNNQKDTVCEDMTFSTWTPPPGVHSQTLSRFFDKVQDLGRDYKPGLANNTIQSILQALDELLEAPGDLETLPRLQQHCVASHLLDGLEDVLRGLSKNLSNGLLNFSYPAGTELSLEVQKQVDRSVTLRQNQAVMQLDWNQAQKSGDPGPSVVGLVSIPGMGKLLAEAPLVLEPEKQMLLHETHQGLLQDGSPILLSDVISAFLSNNDTQNLSSPVTFTFSHRSVIPRQKVLCVFWEHGQNGCGHWATTGCSTIGTRDTSTICRCTHLSSFAVLMAHYDVQEEDPVLTVITYMGLSVSLLCLLLAALTFLLCKAIQNTSTSLHLQLSLCLFLAHLLFLVAIDQTGHKVLCSIIAGTLHYLYLATLTWMLLEALYLFLTARNLTVVNYSSINRFMKKLMFPVGYGVPAVTVAISAASRPHLYGTPSRCWLQPEKGFIWGFLGPVCAIFSVNLVLFLVTLWILKNRLSSLNSEVSTLRNTRMLAFKATAQLFILGCTWCLGILQVGPAARVMAYLFTIINSLQGVFIFLVYCLLSQQVREQYGKWSKGIRKLKTESEMHTLSSSAKADTSKPSTVN [ADGRE2]” as the sequence, how does the “plasma membrane surface immunostaining intensity” value (GPCR class: B) read?
A: The value was 6310 ± 78.

Q: “MGSFNTSFEDGFILVGFSDWPQLEPILFVFIFIFYSLTLFGNTIIIALSWLDLRLHTPMYFFLSHLSLLDLCFTTSTVPQLLINLCGVDRTITRGGCVAQLFIYLALGSTECVLLVVMAFDRYAAVCRPLHYMAIMHPHLCQTLAIASWGAGFVNSLIQTGLAMAMPLCGHRLNHFFCEMPVFLKLACADTEGTEAKMFVARVIVVAVPAALILGSYVHIAHAVLRVKSTAGRRKAFGTCGSHLLVVFLFYGSAIYTYLQSIHNYSEREGKFVALFYTIITPILNPLIYTLRNKDVKGALWKVLWRGRDSG [OR2Y1]” was tested. Which “plasma membrane surface immunostaining intensity” value (GPCR class: A (Olfactory)) did it give?
A: Its value is 132 ± 17.
